These are literature values, as cited in PMC4893024.

For the data set, the target named is Cys39 (UniProt position 39, TSPYECGFDPM). As to the kind of experiment: not stated (the cited study [29] is described as SH-reagent sensitivity/labelling of bovine heart SMP with N-ethylmaleimide and N-fluorescein maleimide). Conditions: Deactive (D) form of complex I, with Cys-39 exposed.

As a reminder, the pKa is the pH at which an ionisable group is half protonated. Regarding “NADH-ubiquinone oxidoreductase chain 3 (ND3 subunit of mitochondrial complex I) (Bos taurus)”, the pKa was 10.2.
